Here are results for 91 sequences from the supplement of paper PMC9112550, “Optimization of the antimicrobial peptide Bac7 by deep mutational scanning” (BMC Biology, 2022).

For this data set, the system named is Escherichia coli TOP10. Put plainly: shrunken log2 fold change of peptide-encoding DNA abundance (4.5 h post-induction vs induction); higher = less antimicrobial activity (less host growth inhibition). The conditions noted are these: time post-induction: 4.5 h; library: site-saturation at positions 5, 18, 19, 20.
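Also: peptides expressed intracellularly from a pBAD plasmid library in pooled LB shake-flask culture, induced with 0.3% L-arabinose, DNA abundance read by NGS, three biological replicates, DESeq2 with apeglm shrinkage.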

For the sequence RRIRARPPRLPRPRPRPVWHPRP, the “shrunken log2 fold change” value was 0.324.

For RRIRDRPPRLPRPRPRPDEDPRP, the “shrunken log2 fold change” value came to 1.46.

For the sequence RRIRHRPPRLPRPRPRPACTPRP, the “shrunken log2 fold change” value was 0.0224.

Consider RRIRQRPPRLPRPRPRPLDWPRP, for which the “shrunken log2 fold change” value came to 0.099.

Regarding RRIRFRPPRLPRPRPRPMTRPRP, the “shrunken log2 fold change” value was -0.173.

As for RRIRVRPPRLPRPRPRPPGQPRP, the “shrunken log2 fold change” value was 0.266.

Regarding RRIRQRPPRLPRPRPRPDFRPRP, the “shrunken log2 fold change” value came to 0.0259.

Regarding RRIRCRPPRLPRPRPRPACFPRP, the “shrunken log2 fold change” value came to 0.0497.

In the case of RRIRLRPPRLPRPRPRPLNVPRP, the “shrunken log2 fold change” value came out at 0.0831.

For RRIRYRPPRLPRPRPRPTLVPRP, the “shrunken log2 fold change” value is -0.0641.

RRIRQRPPRLPRPRPRPHLTPRP: the “shrunken log2 fold change” value is -0.016.

With RRIRIRPPRLPRPRPRPPPTPRP, the “shrunken log2 fold change” value worked out at 0.834.

For the sequence RRIRSRPPRLPRPRPRPYTVPRP, the “shrunken log2 fold change” value was -0.676.

In the case of RRIRSRPPRLPRPRPRPMRTPRP, the “shrunken log2 fold change” value is 0.654.

With RRIRIRPPRLPRPRPRPGIEPRP, the “shrunken log2 fold change” value is -0.154.

With RRIRQRPPRLPRPRPRPKQRPRP, the “shrunken log2 fold change” value was determined as 0.0443.

As for RRIRARPPRLPRPRPRPCSWPRP, the “shrunken log2 fold change” value amounted to 0.0664.

For the sequence RRIRVRPPRLPRPRPRPPLRPRP, the “shrunken log2 fold change” value came out at 0.93.

As to RRIRWRPPRLPRPRPRPIFNPRP, the “shrunken log2 fold change” value was -0.217.

Regarding RRIRHRPPRLPRPRPRPEASPRP, the “shrunken log2 fold change” value was found to be 0.0128.

As for RRIRMRPPRLPRPRPRPEAEPRP, the “shrunken log2 fold change” value was 2.18.

On to RRIRKRPPRLPRPRPRPICAPRP, for which the “shrunken log2 fold change” value stood at 0.363.

Take RRIRVRPPRLPRPRPRPTQHPRP: the “shrunken log2 fold change” value amounted to 0.155.

RRIRNRPPRLPRPRPRPPSGPRP: the “shrunken log2 fold change” value is -0.0646.

For the sequence RRIRHRPPRLPRPRPRPQESPRP, the “shrunken log2 fold change” value was 0.00355.

Take RRIRTRPPRLPRPRPRPSCFPRP: the “shrunken log2 fold change” value was -0.0671.

In the case of RRIRPRPPRLPRPRPRPMMSPRP, the “shrunken log2 fold change” value is 0.081.

For the sequence RRIRRRPPRLPRPRPRPNGKPRP, the “shrunken log2 fold change” value is 0.02.

Regarding RRIRCRPPRLPRPRPRPGLDPRP, the “shrunken log2 fold change” value came to 0.191.

As to RRIRDRPPRLPRPRPRPHAMPRP, the “shrunken log2 fold change” value was 0.158.

With RRIRVRPPRLPRPRPRPFWPPRP, the “shrunken log2 fold change” value is 0.162.

Consider RRIRGRPPRLPRPRPRPFVQPRP, for which the “shrunken log2 fold change” value was found to be 0.0324.

As to RRIRNRPPRLPRPRPRPRKTPRP, the “shrunken log2 fold change” value was -0.0384.

For the sequence RRIRQRPPRLPRPRPRPTCVPRP, the “shrunken log2 fold change” value is -0.442.

For RRIRERPPRLPRPRPRPRCMPRP, the “shrunken log2 fold change” value is -0.355.

On to RRIRRRPPRLPRPRPRPCIRPRP, for which the “shrunken log2 fold change” value is -0.135.

On to RRIRVRPPRLPRPRPRPKFQPRP, for which the “shrunken log2 fold change” value was -0.274.

Regarding RRIRVRPPRLPRPRPRPDPFPRP, the “shrunken log2 fold change” value is 0.0836.

As for RRIRFRPPRLPRPRPRPFTWPRP, the “shrunken log2 fold change” value was -0.816.

For the sequence RRIRMRPPRLPRPRPRPTKIPRP, the “shrunken log2 fold change” value amounted to 0.318.

On to RRIRERPPRLPRPRPRPAKVPRP, for which the “shrunken log2 fold change” value is -0.182.

On to RRIRCRPPRLPRPRPRPAGPPRP, for which the “shrunken log2 fold change” value was determined as 0.116.

RRIRGRPPRLPRPRPRPTCEPRP: the “shrunken log2 fold change” value worked out at 1.1.

On to RRIRGRPPRLPRPRPRPTSGPRP, for which the “shrunken log2 fold change” value is 0.917.

Take RRIRPRPPRLPRPRPRPMISPRP: the “shrunken log2 fold change” value is -0.098.

Turning to RRIRMRPPRLPRPRPRPKNTPRP, the “shrunken log2 fold change” value amounted to 0.575.

As for RRIRKRPPRLPRPRPRPQCQPRP, the “shrunken log2 fold change” value worked out at 0.114.

On to RRIRKRPPRLPRPRPRPIANPRP, for which the “shrunken log2 fold change” value is 0.339.

Consider RRIRNRPPRLPRPRPRPFEFPRP, for which the “shrunken log2 fold change” value was -0.0681.

RRIRLRPPRLPRPRPRPYQCPRP: the “shrunken log2 fold change” value is -0.373.

For the sequence RRIRIRPPRLPRPRPRPLKDPRP, the “shrunken log2 fold change” value is -0.0958.

Consider RRIRQRPPRLPRPRPRPGYNPRP, for which the “shrunken log2 fold change” value is -0.185.

Take RRIRPRPPRLPRPRPRPMQLPRP: the “shrunken log2 fold change” value was determined as 0.406.

As to RRIRGRPPRLPRPRPRPNKQPRP, the “shrunken log2 fold change” value is 0.326.

RRIRMRPPRLPRPRPRPAIAPRP: the “shrunken log2 fold change” value worked out at 1.25.

For RRIRFRPPRLPRPRPRPPHCPRP, the “shrunken log2 fold change” value was determined as 0.362.

As to RRIRKRPPRLPRPRPRPFYSPRP, the “shrunken log2 fold change” value was 0.00762.

As for RRIRERPPRLPRPRPRPPQMPRP, the “shrunken log2 fold change” value stood at 0.208.

Regarding RRIRARPPRLPRPRPRPRVVPRP, the “shrunken log2 fold change” value came to 0.624.

On to RRIRQRPPRLPRPRPRPDNPPRP, for which the “shrunken log2 fold change” value was -0.0388.

Regarding RRIRCRPPRLPRPRPRPVVGPRP, the “shrunken log2 fold change” value was -0.0604.

As for RRIRNRPPRLPRPRPRPVWHPRP, the “shrunken log2 fold change” value was -0.154.

As to RRIRGRPPRLPRPRPRPYGFPRP, the “shrunken log2 fold change” value is -0.0296.

Turning to RRIRFRPPRLPRPRPRPNVYPRP, the “shrunken log2 fold change” value was -0.558.

Turning to RRIRRRPPRLPRPRPRPLCLPRP, the “shrunken log2 fold change” value was 0.0544.

Consider RRIRWRPPRLPRPRPRPWLNPRP, for which the “shrunken log2 fold change” value is -0.227.

For the sequence RRIRYRPPRLPRPRPRPCAQPRP, the “shrunken log2 fold change” value was -0.00639.

As for RRIRHRPPRLPRPRPRPTQEPRP, the “shrunken log2 fold change” value is -0.0394.

In the case of RRIRYRPPRLPRPRPRPDWSPRP, the “shrunken log2 fold change” value was -0.522.

Consider RRIRERPPRLPRPRPRPEQWPRP, for which the “shrunken log2 fold change” value is 0.127.

With RRIRVRPPRLPRPRPRPNYAPRP, the “shrunken log2 fold change” value was -0.192.

For RRIRLRPPRLPRPRPRPATQPRP, the “shrunken log2 fold change” value is 0.00742.

Turning to RRIRDRPPRLPRPRPRPSDWPRP, the “shrunken log2 fold change” value stood at 0.137.

As to RRIRMRPPRLPRPRPRPTMIPRP, the “shrunken log2 fold change” value is -0.185.

Take RRIRLRPPRLPRPRPRPSNHPRP: the “shrunken log2 fold change” value was -1.15.

Consider RRIRFRPPRLPRPRPRPYPPPRP, for which the “shrunken log2 fold change” value was -0.665.

For RRIRWRPPRLPRPRPRPPKNPRP, the “shrunken log2 fold change” value was found to be 0.757.

Regarding RRIRKRPPRLPRPRPRPSLHPRP, the “shrunken log2 fold change” value came out at 0.0624.

As to RRIRERPPRLPRPRPRPEQEPRP, the “shrunken log2 fold change” value was -0.0107.

As to RRIRKRPPRLPRPRPRPHAWPRP, the “shrunken log2 fold change” value turned out to be 0.897.

In the case of RRIRNRPPRLPRPRPRPALIPRP, the “shrunken log2 fold change” value came to 0.0102.

Consider RRIRERPPRLPRPRPRPALFPRP, for which the “shrunken log2 fold change” value stood at 0.0738.

As to RRIRHRPPRLPRPRPRPWHLPRP, the “shrunken log2 fold change” value is -1.9.

In the case of RRIRCRPPRLPRPRPRPFRYPRP, the “shrunken log2 fold change” value is -0.29.

Take RRIRERPPRLPRPRPRPVPPPRP: the “shrunken log2 fold change” value turned out to be 0.22.

On to RRIRIRPPRLPRPRPRPKNHPRP, for which the “shrunken log2 fold change” value was -0.622.

As for RRIRGRPPRLPRPRPRPGVTPRP, the “shrunken log2 fold change” value was determined as 0.721.

For the sequence RRIRSRPPRLPRPRPRPGWWPRP, the “shrunken log2 fold change” value is 4.72.

Take RRIRHRPPRLPRPRPRPGNDPRP: the “shrunken log2 fold change” value is -0.583.

RRIRVRPPRLPRPRPRPNKWPRP: the “shrunken log2 fold change” value was -0.138.

For RRIRRRPPRLPRPRPRPGNKPRP, the “shrunken log2 fold change” value is -0.176.
